Source: patent US20230256114A1, “NOVEL MAYTANSINOIDS AS ADC PAYLOADS AND THEIR USE FOR THE TREATMENT OF CANCER” (priority 2020, published 2023)

Biological target: T1, Trophoblast cell-surface antigen-2 (Trop-2) (human, UniProt P09758 27-323)
T1 sequence (looked up): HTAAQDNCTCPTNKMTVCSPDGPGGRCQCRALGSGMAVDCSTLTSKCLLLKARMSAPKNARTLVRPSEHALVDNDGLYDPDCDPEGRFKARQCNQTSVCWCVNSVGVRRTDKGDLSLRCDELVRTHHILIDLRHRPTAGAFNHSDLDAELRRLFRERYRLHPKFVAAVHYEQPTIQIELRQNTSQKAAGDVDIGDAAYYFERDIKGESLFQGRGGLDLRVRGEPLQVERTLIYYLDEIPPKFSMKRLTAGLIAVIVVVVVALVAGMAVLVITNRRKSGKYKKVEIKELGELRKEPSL
Assay: cell-based or functional assay

B1: Anti-Trop-2-BI-P205 (antibody, V domains shown)
VH: SALMSRLTISKDTSKNQFSLKLSSVTAADTAVYYCARDENWDGAWFAYWGQGTLVTVSS
VL: DIVMTQSPDSLAVSLGERATINCKSSQSLLNSGTRKNYLAWYQQKPGQPPKLLISWASSRESGVPDRFSGSGSGTDFTLTISSLQAEDVAVYYCKQSYNLFTFGGGTKVEIKR
modifications: BI-P205 maytansinoid drug-linker on cysteines; positions not given; DAR 3.6, 4.9 or 7.1
  IC50 (nM), in vitro cytotoxicity (CCK-8, 72 h), BxPC-3 cells (TROP2 +++), ADC at DAR 3.6: 0.43 nM
  IC50 (nM), in vitro cytotoxicity (CCK-8, 72 h), BxPC-3 cells (TROP2 +++), ADC at DAR 7.1: 0.52 nM
  IC50 (nM), in vitro cytotoxicity (CCK-8, 72 h), Colo205 cells (TROP2 +), ADC at DAR 7.1: 26.1 nM
  IC50 (nM), in vitro cytotoxicity (CCK-8, 72 h), MDA-MB-468 cells (TROP2 ++), ADC at DAR 4.9: 1.58 nM
  IC50 (nM), in vitro cytotoxicity (CCK-8, 72 h), MDA-MB-468 cells (TROP2 ++), ADC at DAR 7.1: 0.47 nM
  IC50 (nM), in vitro cytotoxicity (CCK-8, 72 h), NCI-N87 cells (TROP2 ++/+), ADC at DAR 3.6: 0.282 nM

B2: Anti-Trop-2-BI-P207 (antibody, V domains shown)
VH: B1 VH
VL: B1 VL
modifications: BI-P207 maytansinoid drug-linker on cysteines; positions not given; DAR 3.4 or 4.5
  IC50 (nM), in vitro cytotoxicity (CCK-8, 72 h), BxPC-3 cells (TROP2 +++), ADC at DAR 3.4: 2.09 nM
  IC50 (nM), in vitro cytotoxicity (CCK-8, 72 h), MDA-MB-468 cells (TROP2 ++), ADC at DAR 4.5: 4.29 nM
  IC50 (nM), in vitro cytotoxicity (CCK-8, 72 h), NCI-N87 cells (TROP2 ++/+), ADC at DAR 3.4: 33.8 nM

B3: Anti-Trop-2-SMCC-DM1 (antibody, V domains shown)
VH: B1 VH
VL: B1 VL
modifications: SMCC-DM1 on lysines; positions not given; DAR 4
  IC50 (nM), in vitro cytotoxicity (CCK-8, 72 h), BxPC-3 cells (TROP2 +++), ADC at DAR 4: 1.01 nM
  IC50 (nM), in vitro cytotoxicity (CCK-8, 72 h), Colo205 cells (TROP2 +), ADC at DAR 4: 56.4 nM
  IC50 (nM), in vitro cytotoxicity (CCK-8, 72 h), MDA-MB-468 cells (TROP2 ++), ADC at DAR 4: 4.88 nM
  IC50 (nM), in vitro cytotoxicity (CCK-8, 72 h), NCI-N87 cells (TROP2 ++/+), ADC at DAR 4: 2.88 nM

B4: Anti-Trop-2-BI-P208 (antibody, V domains shown)
VH: B1 VH
VL: B1 VL
modifications: BI-P208 maytansinoid drug-linker on cysteines; positions not given; DAR 3.0 or 4.3
  IC50 (nM), in vitro cytotoxicity (CCK-8, 72 h), BxPC-3 cells (TROP2 +++), ADC at DAR 3.0: 0.67 nM
  IC50 (nM), in vitro cytotoxicity (CCK-8, 72 h), MDA-MB-468 cells (TROP2 ++), ADC at DAR 4.3: 2.22 nM
  IC50 (nM), in vitro cytotoxicity (CCK-8, 72 h), NCI-N87 cells (TROP2 ++/+), ADC at DAR 3.0: 6.43 nM

B5: Anti-Trop-2-Vc-MMAE (antibody, V domains shown)
VH: B1 VH
VL: B1 VL
modifications: vc-MMAE drug-linker; conjugation site not stated; DAR 4
  IC50 (nM), in vitro cytotoxicity (CCK-8, 72 h), BxPC-3 cells (TROP2 +++), ADC at DAR 4: 0.51 nM
  IC50 (nM), in vitro cytotoxicity (CCK-8, 72 h), Colo205 cells (TROP2 +), ADC at DAR 4: 0.68 nM
  IC50 (nM), in vitro cytotoxicity (CCK-8, 72 h), MDA-MB-468 cells (TROP2 ++), ADC at DAR 4: 0.54 nM
  IC50 (nM), in vitro cytotoxicity (CCK-8, 72 h), NCI-N87 cells (TROP2 ++/+), ADC at DAR 4: 0.49 nM

B6: Anti-Trop-2-BI-P206 (antibody, V domains shown)
VH: B1 VH
VL: B1 VL
modifications: BI-P206 maytansinoid drug-linker on cysteines; positions not given; DAR 3.6 or 4.5
  IC50 (nM), in vitro cytotoxicity (CCK-8, 72 h), BxPC-3 cells (TROP2 +++), ADC at DAR 3.6: 0.99 nM
  IC50 (nM), in vitro cytotoxicity (CCK-8, 72 h), MDA-MB-468 cells (TROP2 ++), ADC at DAR 4.5: 2.66 nM
  IC50 (nM), in vitro cytotoxicity (CCK-8, 72 h), NCI-N87 cells (TROP2 ++/+), ADC at DAR 3.6: 125 nM

B7: Anti-Trop-2-BI-P209 (antibody, V domains shown)
VH: B1 VH
VL: B1 VL
modifications: BI-P209 maytansinoid drug-linker on cysteines; positions not given; DAR 6.2
  IC50 (nM), in vitro cytotoxicity (CCK-8, 72 h), Colo205 cells (TROP2 +), ADC at DAR 6.2: > 500 nM
  IC50 (nM), in vitro cytotoxicity (CCK-8, 72 h), MDA-MB-468 cells (TROP2 ++), ADC at DAR 6.2: 5.37 nM

B8: Anti-Trop-2-BI-P204 (antibody, V domains shown)
VH: B1 VH
VL: B1 VL
modifications: BI-P204 maytansinoid drug-linker on cysteines; positions not given; DAR 2.8 or 3.9
  IC50 (nM), in vitro cytotoxicity (CCK-8, 72 h), BxPC-3 cells (TROP2 +++), ADC at DAR 2.8: 0.38 nM
  IC50 (nM), in vitro cytotoxicity (CCK-8, 72 h), MDA-MB-468 cells (TROP2 ++), ADC at DAR 3.9: 1.81 nM
  IC50 (nM), in vitro cytotoxicity (CCK-8, 72 h), NCI-N87 cells (TROP2 ++/+), ADC at DAR 2.8: 17.6 nM
